The text below walks through data of doi:10.1101/2021.01.07.425699.

Like-named read-outs stand apart in the source and are kept apart here.

For data set [1], the target named is T1, AtLFYΔ40 (LEAFY) (Arabidopsis thaliana, UniProt Q00958 41-420, del1-40).
T1 sequence: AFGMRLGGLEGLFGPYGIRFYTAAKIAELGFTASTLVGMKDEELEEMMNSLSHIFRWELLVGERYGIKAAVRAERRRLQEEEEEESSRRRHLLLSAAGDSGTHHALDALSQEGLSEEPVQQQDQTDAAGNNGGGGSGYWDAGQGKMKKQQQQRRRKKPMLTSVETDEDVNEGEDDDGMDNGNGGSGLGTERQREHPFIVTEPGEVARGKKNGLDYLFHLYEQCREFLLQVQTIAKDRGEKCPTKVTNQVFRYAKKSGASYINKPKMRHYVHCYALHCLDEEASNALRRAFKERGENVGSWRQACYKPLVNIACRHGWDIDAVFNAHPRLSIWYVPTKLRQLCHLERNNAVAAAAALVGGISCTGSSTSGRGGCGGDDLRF
In words: EMSA. On the technique in general: Mobility shift assays separate free from complexed probe on a gel.

Data set [2] has as its target T1, AtLFYΔ40 (LEAFY). Kind of data set: EMSA. This is another data set of the same source.

B1: 601 free DNA (dsDNA)
DNA 1: ATCGATGTATATATCTGACACGTGCCTGGAGACTAGGGAGTAATCCCCTTGGCGGTTAAAACGCGGGGGACAGCGCGTACGTGCGTTTAAGCGGTGCTAGAGCTGTCTACGACCAATTGAGCGGCCTCGGCACCGGGATTCTGAT
DNA 2: ATCAGAATCCCGGTGCCGAGGCCGCTCAATTGGTCGTAGACAGCTCTAGCACCGCTTAAACGCACGTACGCGCTGTCCCCCGCGTTTTAACCGCCAAGGGGATTACTCCCTAGTCTCCAGGCACGTGTCAGATATATACATCGAT
As for B1, the binding result in data set [1] was “binds”.

B2: C2 free DNA (dsDNA)
DNA 1: ATCGATGTATATATCTGACACGTGCCTGGAGACTAGGGAGTAATCCCCTTGGCGGTTAAAACGCATTGACCAGCGGGTAATTGCGTTTAAGCGGTGCTAGAGCTGTCTACGACCAATTGAGCGGCCTCGGCACCGGGATTCTGAT
DNA 2: ATCAGAATCCCGGTGCCGAGGCCGCTCAATTGGTCGTAGACAGCTCTAGCACCGCTTAAACGCAATTACCCGCTGGTCAATGCGTTTTAACCGCCAAGGGGATTACTCCCTAGTCTCCAGGCACGTGTCAGATATATACATCGAT
As for B2, the binding result in data set [2] was “binds”.
